# From article PMC6747400, “Mismatch Recognition by Saccharomyces cerevisiae Msh2-Msh6: Role of Structure and Dynamics”
# Positions count from the first letter of the chain named.
# B1: 6-MI:C (dsDNA)
# DNA 1: TATGCAGTCACTATGAATCAACTACTTAGATGGT
# DNA 2: ACCATCTAAGTAGTTGATTCATAGTGACTGCATA
# modifications: 6-MI replaces G15 of strand 1 (F, written G)
# B2: T:T_6-MI (dsDNA)
# DNA 1: B1 DNA 1
# DNA 2: B1 DNA 2 with A21T
# modifications: 6-MI replaces G15 of strand 1 (F, written G)
# B3: T:C_6-MI (dsDNA)
# DNA 1: B1 DNA 1
# DNA 2: B1 DNA 2 with A21C
# modifications: 6-MI replaces G15 of strand 1 (F, written G)
# B4: 6-MI_A:A (dsDNA)
# DNA 1: B1 DNA 1
# DNA 2: B1 DNA 2 with T19A
# modifications: 6-MI replaces G15 of strand 1 (F, written G)
# B5: G:T_AF594 (dsDNA)
# DNA 1: B1 DNA 1
# DNA 2: B1 DNA 2 with C20T
# modifications: 5' amino C6 on strand 1
# B6: G:C_AF647 (dsDNA)
# DNA 1: B1 DNA 1
# DNA 2: B1 DNA 2
# modifications: 5' amino C6 on strand 1
# B7: T:G_6-MI (dsDNA)
# DNA 1: B1 DNA 1
# DNA 2: B1 DNA 2 with A21G
# modifications: 6-MI replaces G15 of strand 1 (F, written G)
# B8: A:A_6-MI (dsDNA)
# DNA 1: B1 DNA 1 with T26A
# DNA 2: B1 DNA 2
# modifications: 6-MI replaces G10 of strand 2 (F, written G)
# B9: +T_AF594 (dsDNA)
# DNA 1: B1 DNA 1
# DNA 2: ACCATCTAAGTAGTTGATTCTAGTGACTGCATA
# modifications: 5' amino C6 on strand 1
# B10: 6-MI:T (dsDNA)
# DNA 1: B1 DNA 1
# DNA 2: B1 DNA 2 with C20T
# modifications: 6-MI replaces G15 of strand 1 (F, written G)
# B11: 6-MI:G (dsDNA)
# DNA 1: B1 DNA 1
# DNA 2: B1 DNA 2 with C20G
# modifications: 6-MI replaces G15 of strand 1 (F, written G)
# B12: 6-MI_A:C (dsDNA)
# DNA 1: B1 DNA 1
# DNA 2: B1 DNA 2 with T19C
# modifications: 6-MI replaces G15 of strand 1 (F, written G)
# B13: +T_6-MI (dsDNA)
# DNA 1: B1 DNA 1
# DNA 2: B9 DNA 2
# modifications: 6-MI replaces G15 of strand 1 (F, written G)
# B14: G:G end-labeled (dsDNA)
# DNA 1: B1 DNA 1
# DNA 2: B1 DNA 2 with C20G
# modifications: 5' amino C6
# B15: 6-MI_A:G (dsDNA)
# DNA 1: B1 DNA 1
# DNA 2: B1 DNA 2 with T19G
# modifications: 6-MI replaces G15 of strand 1 (F, written G)
# B16: 6-MI:A (dsDNA)
# DNA 1: B1 DNA 1
# DNA 2: B1 DNA 2 with C20A
# modifications: 6-MI replaces G15 of strand 1 (F, written G)
# Key:
# Msh2;Msh6 [1] = target: T1, Msh2;Msh6 (Saccharomyces cerevisiae;Saccharomyces …, UniProt P25847;Q03834 1-964;1-1242, |); test: fluorescence anisotropy; Fluorescence/FRET: 10 mM sodium phosphate pH 7.5, 100 mM NaCl, 5 mM MgCl2, 10 C (10 nM DNA for anisotropy); EMSA: 20 mM Tris-Cl pH 7.5, 100 mM NaCl, 5 mM MgCl2, 2% ficoll, 4 C, 10 nM DNA; conditions: protein: recombinant;recombinant, tags: ;, copies: 1;1, blunt
# T1 sequence (P25847 whole entry, chain 1 of 2): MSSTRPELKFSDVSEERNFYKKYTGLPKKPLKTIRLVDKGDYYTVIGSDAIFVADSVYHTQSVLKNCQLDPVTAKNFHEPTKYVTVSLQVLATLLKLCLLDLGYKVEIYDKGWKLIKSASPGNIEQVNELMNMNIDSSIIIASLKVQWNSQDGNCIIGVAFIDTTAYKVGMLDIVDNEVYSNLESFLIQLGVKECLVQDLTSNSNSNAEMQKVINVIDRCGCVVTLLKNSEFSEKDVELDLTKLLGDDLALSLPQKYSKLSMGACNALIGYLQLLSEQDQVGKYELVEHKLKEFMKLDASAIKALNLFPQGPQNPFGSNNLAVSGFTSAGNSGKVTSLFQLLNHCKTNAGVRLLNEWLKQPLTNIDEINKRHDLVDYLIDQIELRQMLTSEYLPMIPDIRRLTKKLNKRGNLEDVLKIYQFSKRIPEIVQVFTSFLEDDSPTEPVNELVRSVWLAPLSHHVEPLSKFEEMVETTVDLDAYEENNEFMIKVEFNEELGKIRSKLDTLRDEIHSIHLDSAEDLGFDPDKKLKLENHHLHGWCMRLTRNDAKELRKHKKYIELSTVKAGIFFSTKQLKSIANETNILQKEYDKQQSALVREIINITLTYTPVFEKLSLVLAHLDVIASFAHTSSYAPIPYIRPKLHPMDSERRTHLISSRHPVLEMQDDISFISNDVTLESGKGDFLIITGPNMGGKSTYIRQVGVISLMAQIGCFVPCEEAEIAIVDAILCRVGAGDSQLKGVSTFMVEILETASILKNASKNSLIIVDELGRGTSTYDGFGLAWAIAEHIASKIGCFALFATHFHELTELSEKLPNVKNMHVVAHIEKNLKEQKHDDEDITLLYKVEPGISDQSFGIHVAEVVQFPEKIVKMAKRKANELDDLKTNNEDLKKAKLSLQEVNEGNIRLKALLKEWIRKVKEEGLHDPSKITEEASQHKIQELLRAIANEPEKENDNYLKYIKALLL
# T1 sequence (Q03834 whole entry, chain 2 of 2): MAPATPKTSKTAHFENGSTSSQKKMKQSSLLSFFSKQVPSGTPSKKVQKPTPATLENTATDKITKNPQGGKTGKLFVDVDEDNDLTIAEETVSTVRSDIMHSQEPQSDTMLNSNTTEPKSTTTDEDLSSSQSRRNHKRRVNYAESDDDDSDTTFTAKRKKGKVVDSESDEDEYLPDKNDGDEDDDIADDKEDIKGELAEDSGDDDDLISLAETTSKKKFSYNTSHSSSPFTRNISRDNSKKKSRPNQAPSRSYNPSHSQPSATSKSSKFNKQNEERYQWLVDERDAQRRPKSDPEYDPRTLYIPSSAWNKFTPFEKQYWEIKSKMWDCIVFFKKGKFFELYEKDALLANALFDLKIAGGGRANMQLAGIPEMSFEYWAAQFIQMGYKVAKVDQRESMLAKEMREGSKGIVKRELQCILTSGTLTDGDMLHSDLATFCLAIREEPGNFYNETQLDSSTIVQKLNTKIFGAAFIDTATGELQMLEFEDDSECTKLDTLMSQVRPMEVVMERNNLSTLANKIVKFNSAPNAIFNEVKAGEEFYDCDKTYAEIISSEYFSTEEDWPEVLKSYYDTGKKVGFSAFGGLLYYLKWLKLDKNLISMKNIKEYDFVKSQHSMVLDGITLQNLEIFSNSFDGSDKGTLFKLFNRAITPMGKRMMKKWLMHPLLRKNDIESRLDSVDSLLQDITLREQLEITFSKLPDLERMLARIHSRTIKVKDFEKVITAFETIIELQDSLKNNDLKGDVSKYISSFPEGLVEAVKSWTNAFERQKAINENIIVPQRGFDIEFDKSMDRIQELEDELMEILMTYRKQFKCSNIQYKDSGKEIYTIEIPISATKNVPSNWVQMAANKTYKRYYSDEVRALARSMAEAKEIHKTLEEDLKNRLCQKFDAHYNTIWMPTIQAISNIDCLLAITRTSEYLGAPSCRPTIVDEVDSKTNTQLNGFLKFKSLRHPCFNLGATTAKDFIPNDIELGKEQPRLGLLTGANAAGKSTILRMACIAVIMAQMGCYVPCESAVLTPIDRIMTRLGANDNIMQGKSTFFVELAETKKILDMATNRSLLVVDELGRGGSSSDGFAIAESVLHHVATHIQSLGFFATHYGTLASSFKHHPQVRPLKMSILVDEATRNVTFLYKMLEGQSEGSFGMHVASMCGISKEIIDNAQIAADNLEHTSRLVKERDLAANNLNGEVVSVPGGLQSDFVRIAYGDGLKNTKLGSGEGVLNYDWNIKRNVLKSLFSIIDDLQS
# Msh2;Msh6 [2] = target: T1, Msh2;Msh6; test: fluorescence intensity; Fluorescence/FRET: 10 mM sodium phosphate pH 7.5, 100 mM NaCl, 5 mM MgCl2, 10 C (10 nM DNA for anisotropy); EMSA: 20 mM Tris-Cl pH 7.5, 100 mM NaCl, 5 mM MgCl2, 2% ficoll, 4 C, 10 nM DNA; conditions: protein: recombinant;recombinant, tags: ;, copies: 1;1, label: 6-MI internal, blunt
# Msh2;Msh6 [3] = target: T1, Msh2;Msh6; test: fluorescence anisotropy; Figure S2 legend gives 92.1 ± 13.9; Fluorescence/FRET: 10 mM sodium phosphate pH 7.5, 100 mM NaCl, 5 mM MgCl2, 10 C (10 nM DNA for anisotropy); EMSA: 20 mM Tris-Cl pH 7.5, 100 mM NaCl, 5 mM MgCl2, 2% ficoll, 4 C, 10 nM DNA; conditions: protein: recombinant;recombinant; tags: ;; copies: 1;1; label: 5' Alexa Fluor 647 on strand 1; blunt homoduplex
# Msh2;Msh6 [4] = target: T1, Msh2;Msh6; test: fluorescence anisotropy; Table 1 prints this value in the intensity column of +T_6-MI; Fluorescence/FRET: 10 mM sodium phosphate pH 7.5, 100 mM NaCl, 5 mM MgCl2, 10 C (10 nM DNA for anisotropy); EMSA: 20 mM Tris-Cl pH 7.5, 100 mM NaCl, 5 mM MgCl2, 2% ficoll, 4 C, 10 nM DNA; conditions: protein: recombinant;recombinant; tags: ;; copies: 1;1; label: 5' Alexa Fluor 594 on strand 1; blunt, unpaired T14 in strand 1
# Msh2;Msh6 [5] = target: T1, Msh2;Msh6; test: fluorescence anisotropy; text gives error 6.9; Fluorescence/FRET: 10 mM sodium phosphate pH 7.5, 100 mM NaCl, 5 mM MgCl2, 10 C (10 nM DNA for anisotropy); EMSA: 20 mM Tris-Cl pH 7.5, 100 mM NaCl, 5 mM MgCl2, 2% ficoll, 4 C, 10 nM DNA; conditions: protein: recombinant;recombinant; tags: ;; copies: 1;1; label: 6-MI internal; blunt, 6-MI:A mismatch
binder,measurement,setting,value
B1,Kd,"Msh2;Msh6 [1]; label: 6-MI internal, 34 bp homoduplex",122 ± 12.1 nM
B2,Kd,"Msh2;Msh6 [1]; label: 6-MI internal, T14:T mismatch",77.5 ± 20 nM
B3,Kd,"Msh2;Msh6 [1]; label: 6-MI internal, T14:C mismatch",113 ± 18.7 nM
B4,Kd,Msh2;Msh6 [2]; A16:A mismatch,19.1 ± 3.5 nM
same,Kd,"Msh2;Msh6 [1]; label: 6-MI internal, A16:A mismatch",7.9 ± 2 nM
B5,Kd,"Msh2;Msh6 [1]; label: 5' Alexa Fluor 594 on strand 1, G15:T mismatch",13.3 ± 3.9 nM
B6,Kd,Msh2;Msh6 [3],106 ± 13.9 nM
B7,Kd,"Msh2;Msh6 [1]; label: 6-MI internal, T14:G mismatch",25.9 ± 1.2 nM
B8,Kd,Msh2;Msh6 [2]; A26:A mismatch,10.4 ± 2.4 nM
same,Kd,"Msh2;Msh6 [1]; label: 6-MI internal, A26:A mismatch",11.3 ± 3.1 nM
B9,Kd,Msh2;Msh6 [4],18.1 ± 2.6 nM
B10,Kd,"Msh2;Msh6 [1]; label: 6-MI internal, 6-MI:T mismatch",13.7 ± 3.4 nM
B11,Kd,"Msh2;Msh6 [1]; label: 6-MI internal, 6-MI:G mismatch",10.4 ± 5.8 nM
B12,Kd,Msh2;Msh6 [2]; A16:C mismatch,17.1 ± 4.3 nM
same,Kd,"Msh2;Msh6 [1]; label: 6-MI internal, A16:C mismatch",13.3 ± 3.6 nM
B13,Kd,"Msh2;Msh6 [1]; label: 6-MI internal, unpaired T14 in strand 1 (34/33 nt)",16 ± 2.9 nM
B14,Kd,"Msh2;Msh6 [1]; label: Alexa Fluor 594 or 647, G15:G mismatch",15.6 ± 3.4 nM
B15,Kd,Msh2;Msh6 [2]; A16:G mismatch,11.8 ± 2.8 nM
same,Kd,"Msh2;Msh6 [1]; label: 6-MI internal, A16:G mismatch",9 ± 2.8 nM
B16,Kd,Msh2;Msh6 [5],25.8 ± 12.3 nM
